Results taken from the DeepSol protein solubility set.

Experiment: soluble on expression in E. coli; label from the status in PepcDB or PDB records

Sequence | soluble on expression in E. coli
MPTKANTQRNWTIMVYLAGDNNLDSAGVVDLKEMKTVGTTDKIAVLAQFDRAGAKQATIRYCLKQGTPLAKDAVQSLGETNMGDPKVLEDFVTWGVANYPADHYLLVLWNHGAGWDDANLYQGDVFSGAAPPVSRKAQPVATRGATAGAKAIPLAQARAGIRRARRALFSTTVEAAIKQRGIAFDDQAQDFLDNIELKRVLTAIKKKLKRKIDIVGMDACLMSMAEVAYQMRDVADYSVGSEETEPGDGWPYDRILKALAAKPAMTPEELSKTIVAQYLASYKATENVTQSAMKLLALNPLATAVDGMAKALTGILGDTAARTALINARSQVQEYSRPYDDYCDLLDLCDLIGKGVASPAVKTACAKVKDAAAAAIVAAGYKGTGVDNSGGISIYFPKRKLSPLYKTLDFTKKTAWDEFLAAYLAGLGRLEHHHHHH | soluble
MSLIHAFIKKGCFQDSVSLMIISRKLSESENVDDVSVMMGTPANKALLDTTGFWHDDFNNATPNDICVAIRSEAADAGIAQAIMQQLEEALKQLAQGSGSSQALTQVRRWDSACQKLPDANLALISVAGEYAAELANQALDRNLNVMMFSDNVTLEDEIQLKTRAREKGLLVMGPDCGTSMIAGTPLAFANVMPEGNIGVIGASGTGIQELCSQIALAGEGITHAIGLGGRDLSREVGGISALTALEMLSADEKSEVLAFVSKPPAEAVRLKIVNAMKATGKPTVALFLGYTPAVARDENVWFASSLDEAARLACLLSRVTARRNAIAPVSSGFICGLYTGGTLAAEAAGLLAGHLGVEADDTHQHGMMLDADSHQIIDLGDDFYTVGRPHPMIDPTLRNQLIADLGAKPQVRVLLLDVVIGFGATADPAASLVSAWQKACAARLDNQPLYAIATVTGTERDPQCRSQQIATLEDAGIAVVSSLPEATLLAAALIHPLSPAAQQHTPSLLENVAVINIGLRSFALELQSASKPVVHYQWSPVAGGNKKLARLLERLQEGHHHHHH | soluble
AIAAHVSSETQDVSPKDELTASEASTRSPLCEHTFPGDSDLRSMIEEHAFQVLSQGSLLESPSYTVCVSEPDKDDDFLSLNFPRKLWKIVESDQFKSISWDENGTCIVINEELFKKEILETKAPYRIFQTDAIKSFVRQLNLYGFSKIQQNFQRSAFLATFLSEEKESSVLSKLHVFVFHHSLFGATFGEHHFQPCPLPSGNKAPISTWSGDSWLL | soluble
MAHHHHHHMQEFSTYSLFSRKNETVSGMDENFDNHPENYFKEEYYYDENDDMEVKVKKIGVTLKKFEPLKNGNVSETIKLIHLGNKDKKHIEAINNDIQIIKQELQAIYNELMNYTNGNKNIQQIFQQNILENDVLNQETERQTRSRGGG | soluble
MGSDKIHHHHHHMQRYDAVISGAGPAGCSAALSLAQKGRRVLLIDKARFPREKICGDGVTAASTELLEEMGVLELLRQRPGSLTEFRGATFVSPGGTVVQGRILRNGHLSGSSYVIPRMVLDDSLVSRVKEHSSITFLDKTTVTGLVMDGDRARGVATSAGEFCGRIIIAADGAYSPIAKQLDLWNRDKRQQGFAMRAWFSGVEGLGDSIELCYDKAMLPGYGWIFPAGEQRANVGVFLLPRFADQRSTKRLFKSFVKENAFAAARLKNAVMEPGSLKSWPLPFGSFAGRRGRGNVLLAGDAGSFIDPLTGEGIYYALKTGRYAAEAVANALERNDESAALTRYEQLWRGEFSGRVYFPGYAFQHFMNNSWFVDTFMRYTAKKQHRADLLADVVAHNRKRRELFKLLNPFY | not soluble
VRRLLIVHHTPSPHMQEMFEAVVSGATDPEIEGVEVVRRPALTVSPIEMLEADGYLLGTPANLGYISGALKHAFDVCYYLCLDTTRGRSFGAYIHGNEGTEGAERAVDAITTGLGWVQAAETVVVMGKPSKADIEACWNLGATVAAQLMG | soluble
GSGATSAAGKPQETFLDFNESPYGPSAKARAAMQRAAALCGRYDYDAQDALVGLFAKQNGIPAECVHAYCGSRQPLQYAVAAFTGKERGLVIADPSYDSVVGAAQAQGAKVAAVPLDAEAAHDIERMLAAAQRDAGLIYICNPNNPTGTLTPHERIVRAIERKPERSVVLVDEAYIHFSDAPSVVGLAVQRQDVLVLRTFSKLYGMAGARLGLAIGHPQLLARLERFGGHNVVPSPTAHAGLESLRDDDLVPRRKQQNAEVRERTIAWLRQQGFRCTASQSNCFMVDMRRPAELVIAELEKQRVHVGRPWASWPNWVRVTVGSEEEMQAFR | not soluble
MVKQVGNTEIKENHRASCHCGAVVLELYLPNGIEKPRRCDCSICRRKGAIVGSVPLANIKILKGESELKLYQFNTGTAKHYFCSNCGIYTHHQRRSDPTEYGYNIGCLEGVNPYELGAIEVMDGVNHPADRKKILEHHHHHH | not soluble
MELVSVAALAENRVIGRDGELPWPSIPADKKQYRSRVADDPVVLGRTTFESMRDDLPGSAQIVMSRSERSFSVDTAHRAASVEEAVDIAASLDAETAYVIGGAAIYALFQPHLDRMVLSRVPGEYEGDTYYPEWDAAEWELDAETDHEGFTLQEWVRSASSR | soluble
MAHHHHHHMTSVLAVVNARRVWRGASVLQPAVSSSYPPEVDALLVEGGRISFIGSTAEVQQRYGALVAAQPVDAAAAAPQPVEGGRPRTVSHRVIDCEHRHAVYPGFIDSHVHFLDGGRMLLAPQLGFATSRTQFTAIVRDFVEHRYNREEGGWVYGVGWSEAVLGCSPTREWLDEVSTKIHLVMYSKDIHSAVMNTAALRSCHIIPGAEDGEPLITSVEGGVIELNENGQPSGVLRDNAIQLAKRYAPAADTPANQRRALEAATEHLLSLGFTSVFSMMSTTYMDNVSEINFLAQMEREGAMRLRVRYGVPLSDVERLMDKFYRVMATDAAQSGRSDDFTLPYRFTMTPPAAGGGYLLLGAVKLFADGSLSSRTAAMNRPYGYNVTTEGDIDSDLDDAAISALLKERSGKQCQCGLLTMSRLELQCAIRVAHSHDLQCVVHAIGDRAVATVNRALCASADWLRERGAEAGVVAAVARFRADPRSRVEHCQHMSSMTKEVKRMAQYGIIASMQPCHLLFDGDYVDTLLGQRRKDTSYMWGTLLAAKIRVDLGSDWPVAPADVNDGLRGAVTRVPDVMTALAAEEAQYRSQQQAQPSADNTAACAATALRRYHDTWNPAECISMDAALRTYTYEGAHGMFMENYLGTLEVGKYADITVWTADWLDDAEMEQMAGVEGANARWWPRHREPHVAYTIVGGVVEYDRSH | not soluble
MAREFKRSDRVAQEIQKEIAVILQREVKDPRIGMVTVSDVEVSSDLSYAKIFVTFLFDHDEMAIEQGMKGLEKASPYIRSLLGKAMRLRIVPEIRFIYDQSLVEGMRMSNLVTNVVREDEKKHVEESNLEHHHHHH | soluble
MKKDIFYCEQWSYGYKKLHKPFSEKQAEEKHLKGELYTAVIGSATQPEYVITLREEVGFFSVHFFDKFGRDYLTHQFQKYSNSNYYFLSMAVWRDYITLESHDLAEGYTYFFNENTDDCYVLKEDFINNERYEKTELYSQKDKVILFPKFGEYDLVLNPDII | not soluble
MDNVDFSKDIRDYSGLELAFLGDAIWELEIRKYYLQFGYNIPTLNKYVKAKVNAKYQSLIYKKIINDLDEEFKVIGKRAKNSNIKTFPRSCTVMEYKEATALEAIIGAMYLLKKEEEIKKIINIVIKGELEHHHHHH | soluble
MGSDKIHHHHHHMSEEKNTAIDLKNLKAGGFIKERGKDLFTVRLRVPGGRLPVGRLKKIAEVAEKYGQGMVHLSVRQSVELININFRDFDAVVAELGEGTQKVASCGARVRVPTACGGCEYNPNGLVDTQKSALEVDEKLFGIPTGHHKFKVGFAGCPFDCPKSATNDVGFQGAVWPVLSADHCIGCGLCAKSCTEDAIAMGDNGKPLFIPANCLYCGDCLKVCPTEAWRAGKKGYTVRIGGKWGRRPLVGTLFAEFLPEDQVVDFIAAVLGWYQEKAEGQGRIRLGDVIRAQGPEALLARLRERFPAFVVNATIAPQAIATQVGKEKQAHDNR | not soluble
MTRFLEKRHKKKKATNKERILSYKPIHAIEQENSFRSSRCSNQTVEVSAVEDSRSALVGFFESNEPSESVTLKGKRERQVRFADKTNTVGLLKESLEEKLLASKTLISQLKEENCRLKERLNEVKDQLELKEKIALVQQENNDLEAEVLEWKAKFYESESEKERILASRSRPKDGYEIVQESLAQQPGTTSFYDYKFRQLVHKLTRMNAIHSKHNDKEYHKCDIVNESKDRSITFELFIDEEQEEIEYVPVQLNGVSQKLPSYLQDNISFDVQNAPIFFTKIMHSLFSK | soluble
MAKGIPYGISDFSRLIDQNYYYVDKTHFIPQIEEIANYLFLIRPRRFGKSVFLTMMRAYYDISQKDRFEERFGNLWIGKHPTPLQGIYQVLYFDFSKANLGRGSLEDNFNNYCCIQLNDFFSTYREYYQGEKELEQIIASTEAATKLHWLEATARRLGHLLYLIIDEYDNFTNVILSEQGKNLFRDLTHASGFYREYFKQFKGMFERIFLMGVSPVTLDDLSSGYNIDWNISVDPHFNMMMGFSETDVREMFGYYQKEGMLKGDIDAMINEMKPWYDNYCFAEASLKTDPRMFNCDMTLYYLRHRVNFDASPKELIDKNIRTDYSKLKMLARLDHENVSGEDRMSTIEEIAAKGEILVNLHTSFPAEKIVETDNFRSLLYYYGLLTMCGTRGDRIVMCIPNNCVREQYFGFLREYYQQRKEVFLPHLKDLIDDMAFDGQWRPLFEYIALAYKENSAIRDAIEGEHNLQGFFKAYLALASYYLVQPELEMNYGYCDFFLLPDKSRYPDTAHSYILELKYLPRTATDKELEEQAEEGRGQLKQYSRDKKVTTISEGTALHCILLQFKGWELIKCEEVSPKC | not soluble
MQVNIILLAAGKGQRFQSSSPNKIGCATIKQLARINDKPLIVHSIDKLQPLLKNAYVHNFFVTLGANKNAIQTVLPQDISVIASQHWAEGMGHTLAESVHSIKATSSHVLVALADQALITTEHYQELLSASKEQPNKIIATLCEGQLMAPAIFPEKYFPLLVKIQGDKGAGKLLLQHAKKADAITCEDAKIDIDTFSDLERVRQHLEYALQDNQQSSL | not soluble
SRLSRIDLAVDDFHGLFGREYAKKAYSDDAFRTARAGRAPNGGERLVSEPNGKIINESFEVGSRESRIYWRIYNKAAQLGLDMHWFRNEVELKDMPIDVLLNIEGYFAGLCAYSASIINSLPVKVVTKKRQVALDIHSRIKWARRQVGKTLFDISKHFGGDLERVFGALISKEIHDDSLNLPDSYM | not soluble
MYADRDLPGAGGLAVRVIPCLDVDDGRVVKGVNFENLRDAGDPVELAAVYDAEGADELTFLDVTASSSGRATMLEVVRRTAEQVFIPLTVGGGVRTVADVDSLLRAGADKVAVNTAAIACPDLLADMARQFGSQCIVLSVDARTVPVGSAPTPSGWEVTTHGGRRGTGMDAVQWAARGADLGVGEILLNSMDADGTKAGFDLALLRAVRAAVTVPVIASGGAGAVEHFAPAVAAGADAVLAASVFHFRELTIGQVKAALAAEGITVR | not soluble
MENISDLWNSALKELEKKVSKPSYETWLKSTTAHNLKKDVLTITAPNEFARDWLESHYSELISETLYDLTGAKLAIRFIIPQSQAEEDIDLPPVKPNPAQDDSAHLPQSMLNPKYTFDTFVIGSGNRFAHAASLAVAEAPAKAYNPLFIYGGVGLGKTHLMHAIGHYVIEHNPNAKVVYLSSEKFTNEFINSIRDNKAVDFRNKYRNVDVLLIDDIQFLAGKEQTQEEFFHTFNALHEESKQIVISSDRPPKEIPTLEDRLRSRFEWGLITDITPPDLETRIAILRKKAKAEGLDIPNEVMLYIANQIDSNIRELEGALIRVVAYSSLINKDINADLAAEALKDIIPNSKPKIISIYDIQKAVGDVYQVKLEDFKAKKRTKSVAFPRQIAMYLSRELTDSSLPKIGEEFGGRDHTTVIHAHEKISKLLKTDTQLQKQVEEINGILKLEHHHHHH | not soluble
